Experiment: soluble on expression in E. coli; label from the status in PepcDB or PDB records

| Sequence | soluble on expression in E. coli |
| --- | --- |
| PNKDVKIVKEVLLYKGSPFTGNIIMNTEDQKDGYIGGISLKNGHLDGLSELKNDRQGQHMRFTVVGGKFDGELIMNDPSQNTYIMLDINKGAIVKYLADIQGVYKYDLNFVNNLANGSMEAQGQIFTFKNGIAKGPQGQELKLTLNPATGDLEMEAFVNGKAAGKQTIPNVLTPQYLESFLFQSITDTNN | not soluble |
| GEERKSSSWGRVDAMELPNYSRQLLQQLYTLCKEQQFCDCTISIGTIYFRAHKLVLAAASLLFKTLLDNTDTISIDASVVSPEEFALLLEMMYTGKLPVGKHNFSKIISLADSLQMFDVAVSCKNLLTSLVNCSVQGQVVRDVSAPSSETFRKEPEKPQVEILSSEGAGEPHSSPELAATPGGPVKAETEEAAHSVSQEMSVNSPTAQESQRNAETPAETPTTAEACSPSPPVQTFSEAKKTSTEPGCERKHYQLNFLLENEGVFSDALMVTQDVLKKLEMCSEIKGPQKEMIVKCFEGEGGHSAFQRILGKVREESLDVQTVVSLLRLYQYSNPAVKTALLDRKPEDVDTVQPKGSTEEGKTLSVLLLEHKEDLIQCVTQLRPIMESLETAKEEFLTGTEKRVILNCCEGRTPKETIENLLHRMTEEKTLTAEGLVKLLQAVKTTFPNLGLLLEKLQKSATLPSTTVQPSPDDYGTELLRRYHENLSEIFTDNQILLKMISHMTSLAPGEREVMEKLVKRDSGSGGFNSLISAVLEKQTLSATAIWQLLLVVQETKTCPLDLLMEEIRREPGADAFFRAVTTPEHATLETILRHNQLILEAIQQKIECKLFTSEEEHLAETVKEILSIPSETASPEASLRAVLSRAMEKSVPAIEICHLLCSVHKSFPGLQPVMQELAYIGVLTKEDGEKETWKVSNKFHLEANNKEDEKAAKEDSQPGEQNDQGETGSLPGQQEKEASASPDPAKKSFICKACDKSFHFYCRLKVHMKRCRVAKSKQVQCKECSETKDSKKELDKHQLEAHGAGGEPDAPKKKKKRLPVTCDLCGREFAHASGMQYHKLTEHFDEKPFSCEECGAKFAANSTLKNHLRLHTGDRPFMCKHCLMTFTQASALAYHTKKKHSEGKMYACQYCDAVFAQSIELSRHVRTHTGDKPYVCRDCGKGFRQANGLSIHLHTFHNIEDPYDCKKCRMSFPTLQDHRKHIHEVHSKEYHPCPTCGKIFSAPSMLERHMVTHVGGKPFSCGICNKAYQQLSGLWYHNRTHHPDVFAAQNHRSSKFSSLQCSSCDKTFPNTIEHKKHIKAEHADMKFHECDQCKELFPTPALLQVHVKCQHSGSQPFRCLYCAATFRFPGALQHHVTTEHFKQSETTFPCELCGELFTSQAQLDSHLESEHPKVMSTETQAAASQMAQVIQTPEPVAPTEQVITLEETQLAGSQVFVTLPDSQASQASSELVAVTVEDLLDGTVTLICGEAK | soluble |
| GLEVDNNSLLRNIYSTIVYEYSDIVIDFKTSHNLVTKKLDVRDARDFFINSEMDEYAANDFKTGDKIAVFSVPFDWNYLSKGKVTAYTYGGITPYQKTSIPKNIPVNLWINGKQISVPYNEISTNKTTVTAQEIDLKVRKFLIAQHQLYSSGSSYKSGRLVFHTNDNSDKYSFDLFYVGYRDKESIFKVYKDNKSFNIDKIGHLDIEIDS | soluble |
| MKPEDFRASATRPFTGEEYLASLRDDREIYIYGDRVKDVTSHPAFRNAAASMARLYDALHDPQSKEKLCWETDTGNGGYTHKFFRYARSADELRQQRDAIAEWSRLTYGWMGRTPDYKAAFGSALGANPGFYGRFEDNAKTWYKRIQEACLYLNHAIVNPPIDRDKPVDQVKDVFISVDEEVDGGIVVSGAKVVATNSALTHYNFVGQGSAQLLGDNTDFALMFIAPMNTPGMKLICRPSYELVAGIAGSPFDYPLSSRFDENDAILVMDKVFIPWENVLIYRDFERCKQWFPQGGFGRLFPMQGCTRLAVKLDFITGALYKALQCTGSLEFRGVQAQVGEVVAWRNLFWSLTDAMYGNASEWHGGAFLPSAEALQAYRVLAPQAYPEIKKTIEQVVASGLIYLPSGVRDLHNPQLDKYLSTYCRGSGGMGHRERIKILKLLWDAIGSEFGGRHELYEINYAGSQDEIRMQALRQAIGSGAMKGMLGMVEQCMGDYDENGWTVPHLHNPDDINVLDRIRQ | not soluble |
| MNQVAPFYADHVGSILRTKGIKDAREKFQSGEITALELRKIENTEIKYIVEKQKEVGLKSITDGEFRRAWWHFDFLENLDGVEGYDAAGGIQFSKVQTKSHSVKITGPIDFTTHPFIEDFIFLKEAVGDNHVAKQTIPSPAMLHYRGDIEYQPYLDDAEKFANDLATAYQKAIQAFYDAGCRYLQLDDTSWSYLCSDEQREVVRQRGFDPETLQETYKNLINEAIKHKPADMVITMHICRGNFRSTWIAEGGYGPVAETLFGKLNIDGFFLEYDNERSGDFAPLKYVTRPDLKIVLGLITSKTGELEDEAAIKARIEEASEIVPLSQLRLSPQCGFASTEEGNILTEEEQWDKLRYVVRLANDIWGELEHHHHHH | soluble |

Reference: the DeepSol protein solubility set
